Where two headings read alike, the source gives them in different places.
What was measured:
[1] = target: human-CD45RO-ECD-His (human) (UniProt P08575); experiment: SPR, captured human-CD45RO-ECD-His, 1:1 binding
[2] = target: human-CD45RO-ECD-His (human) (UniProt P08575); experiment: ELISA, human-CD45RO-ECD-His-coated plates
[3] = target: human-CD45RO-ECD-His (human) (UniProt P08575); experiment: ELISA, human-CD45RO-ECD-His-coated plates; remark: listed apart in the source

“CD45RO Monoclonal Antibody (UCHL1) (eBioscience™)” was tested, and the Kd [1] was 433 nM, the koff [1] was 0.00373 s⁻¹ and the kon [1] was 8610 M⁻¹ s⁻¹. The EC50 [2] was 0.328 nM and the EC50 [3] was 0.544 nM.

Source: patent US20250320294A1
